Laboratory results reported in PMC11096129.

T1: RAD52 NTD (Homo sapiens, UniProt P43351 1-209, del210-418)
T1 sequence: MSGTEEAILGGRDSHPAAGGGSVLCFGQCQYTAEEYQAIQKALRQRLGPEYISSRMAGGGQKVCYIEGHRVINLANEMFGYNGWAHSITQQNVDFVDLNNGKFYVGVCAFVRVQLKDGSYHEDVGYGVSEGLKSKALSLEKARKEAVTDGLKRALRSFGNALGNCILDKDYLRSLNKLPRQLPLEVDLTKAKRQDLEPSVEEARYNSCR

T2: RAD52-OR (open ring) (Homo sapiens, UniProt P43351 1-418)
T2 sequence: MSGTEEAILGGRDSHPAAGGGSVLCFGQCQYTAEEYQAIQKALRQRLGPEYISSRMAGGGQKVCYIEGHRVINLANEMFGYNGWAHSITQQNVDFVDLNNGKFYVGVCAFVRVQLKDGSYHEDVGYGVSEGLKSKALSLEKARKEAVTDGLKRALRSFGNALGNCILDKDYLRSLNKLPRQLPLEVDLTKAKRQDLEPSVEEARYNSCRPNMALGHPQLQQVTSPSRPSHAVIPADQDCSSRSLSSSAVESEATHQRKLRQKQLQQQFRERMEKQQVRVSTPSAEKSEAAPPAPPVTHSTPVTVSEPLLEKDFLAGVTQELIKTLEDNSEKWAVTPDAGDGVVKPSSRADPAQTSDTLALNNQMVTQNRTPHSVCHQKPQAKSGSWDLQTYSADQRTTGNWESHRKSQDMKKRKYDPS

T3: RAD52(∆RID) (Homo sapiens, UniProt P43351 1-418, del239-290)
T3 sequence: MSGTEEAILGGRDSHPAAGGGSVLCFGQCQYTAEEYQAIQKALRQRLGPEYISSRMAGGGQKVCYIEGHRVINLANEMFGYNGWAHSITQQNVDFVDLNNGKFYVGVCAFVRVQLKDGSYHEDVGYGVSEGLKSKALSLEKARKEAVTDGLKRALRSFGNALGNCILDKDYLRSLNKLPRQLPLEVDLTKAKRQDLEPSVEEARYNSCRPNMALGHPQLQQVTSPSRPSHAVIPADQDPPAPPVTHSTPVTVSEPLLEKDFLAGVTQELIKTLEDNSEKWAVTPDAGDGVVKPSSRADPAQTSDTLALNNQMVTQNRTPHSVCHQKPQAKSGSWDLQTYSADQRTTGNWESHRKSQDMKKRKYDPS

T4: RAD52(∆C) (Homo sapiens, UniProt P43351 1-400, del401-418)
T4 sequence: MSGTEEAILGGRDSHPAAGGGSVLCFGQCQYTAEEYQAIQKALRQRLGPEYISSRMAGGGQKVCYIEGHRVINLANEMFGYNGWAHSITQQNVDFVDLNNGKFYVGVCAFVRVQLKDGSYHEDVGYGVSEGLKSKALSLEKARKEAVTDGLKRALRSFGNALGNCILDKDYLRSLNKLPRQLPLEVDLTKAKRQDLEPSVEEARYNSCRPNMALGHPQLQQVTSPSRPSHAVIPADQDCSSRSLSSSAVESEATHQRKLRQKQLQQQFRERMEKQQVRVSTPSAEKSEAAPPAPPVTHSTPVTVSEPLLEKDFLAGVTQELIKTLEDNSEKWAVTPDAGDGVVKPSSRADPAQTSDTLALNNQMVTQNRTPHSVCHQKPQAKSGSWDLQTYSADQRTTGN

B1: FAM-SSA4 (40 nt) (ssDNA)
DNA: TATCGAATCCGTCTAGTCAACGCTGCCGAATTCTACCAGT
B2: SSA7 (28 nt) (ssDNA)
DNA: CGGCAGCGTTGACTAGACGGATTCGATA

Columns and labels:
[1] = biological target: T1, RAD52 NTD; experiment: fluorescence anisotropy; 1 mM Mg(OAc)2; ring concentration (11-mer); FA: 25 mM HEPES pH 8.0, 0.2 M KOAc, 10% glycerol, 0.25 mM TCEP, 1 mM Mg(OAc)2, 0.01% Brij-35, 25 °C, 10 nM DNA; BLI: 25 mM HEPES pH 8.0, 200 mM KOAc, 0.01% Tween-20, 1 mM Mg(OAc)2, 0.25 mM TCEP, 25 °C; conditions: protein: recombinant; tags: none (tags removed); chain copies: 11; label: 5' 6-FAM; single strand
[2] = biological target: T2, RAD52-OR (open ring); experiment: fluorescence anisotropy; 1 mM Mg(OAc)2; ring concentration (10-mer); FA: 25 mM HEPES pH 8.0, 0.2 M KOAc, 10% glycerol, 0.25 mM TCEP, 1 mM Mg(OAc)2, 0.01% Brij-35, 25 °C, 10 nM DNA; BLI: 25 mM HEPES pH 8.0, 200 mM KOAc, 0.01% Tween-20, 1 mM Mg(OAc)2, 0.25 mM TCEP, 25 °C; conditions: protein: recombinant; tags: none (tags removed); chain copies: 10; label: 5' 6-FAM; single strand
[3] = biological target: RPA(∆WHD) (Homo sapiens, UniProt P27694;P15927;P35244 1-616;1-206;1-121); experiment: fluorescence anisotropy; 1 mM Mg(OAc)2; FA: 25 mM HEPES pH 8.0, 0.2 M KOAc, 10% glycerol, 0.25 mM TCEP, 1 mM Mg(OAc)2, 0.01% Brij-35, 25 °C, 10 nM DNA; BLI: 25 mM HEPES pH 8.0, 200 mM KOAc, 0.01% Tween-20, 1 mM Mg(OAc)2, 0.25 mM TCEP, 25 °C; conditions: protein: recombinant; tags: 10xHis on RPA3; copies: 1;1;1; label: 5' 6-FAM; single strand
RPA(∆WHD), sequence (P27694 whole entry, chain 1 of 3): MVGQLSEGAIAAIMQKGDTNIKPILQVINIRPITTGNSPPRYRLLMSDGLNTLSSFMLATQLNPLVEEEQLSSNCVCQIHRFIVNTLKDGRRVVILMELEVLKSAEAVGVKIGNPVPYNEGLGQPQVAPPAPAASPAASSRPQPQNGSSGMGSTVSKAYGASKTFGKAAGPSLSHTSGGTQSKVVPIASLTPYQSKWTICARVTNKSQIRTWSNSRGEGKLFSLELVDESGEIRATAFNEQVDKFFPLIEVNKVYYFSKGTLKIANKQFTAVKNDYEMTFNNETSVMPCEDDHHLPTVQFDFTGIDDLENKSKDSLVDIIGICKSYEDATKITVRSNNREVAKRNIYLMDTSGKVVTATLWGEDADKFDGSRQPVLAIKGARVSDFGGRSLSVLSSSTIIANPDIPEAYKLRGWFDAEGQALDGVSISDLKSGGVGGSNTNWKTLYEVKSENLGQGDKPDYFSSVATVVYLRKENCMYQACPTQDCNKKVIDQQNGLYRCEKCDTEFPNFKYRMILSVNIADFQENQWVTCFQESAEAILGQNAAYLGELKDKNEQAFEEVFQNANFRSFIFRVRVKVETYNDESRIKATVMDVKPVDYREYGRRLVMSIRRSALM
RPA(∆WHD), sequence (P15927 1-206, chain 2 of 3): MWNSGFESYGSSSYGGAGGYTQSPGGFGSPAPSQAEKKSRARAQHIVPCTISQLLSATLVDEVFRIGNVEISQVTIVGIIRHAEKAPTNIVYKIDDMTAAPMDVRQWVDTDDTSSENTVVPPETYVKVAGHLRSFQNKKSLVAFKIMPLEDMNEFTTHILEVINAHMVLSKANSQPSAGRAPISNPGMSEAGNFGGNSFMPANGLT
RPA(∆WHD), sequence (P35244 whole entry, chain 3 of 3): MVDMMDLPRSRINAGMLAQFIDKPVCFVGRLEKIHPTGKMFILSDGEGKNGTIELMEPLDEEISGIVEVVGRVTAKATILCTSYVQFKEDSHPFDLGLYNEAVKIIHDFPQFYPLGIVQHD

[4] = biological target: T3, RAD52(∆RID); experiment: as above; conditions: protein: recombinant; tags: none (tags removed); label: 5' 6-FAM; single strand
[5] = biological target: T4, RAD52(∆C); experiment: as above; conditions: protein: recombinant; tags: none (tags removed); chain copies: 11; label: 5' 6-FAM; single strand
[6] = biological target: T5, RPA (Homo sapiens, UniProt P27694;P15927;P35244 1-616;1-270;1-121); experiment: as above; conditions: protein: recombinant; tags: 10xHis on RPA3; copies: 1;1;1; label: 5' 6-FAM; single strand
T5 sequence (P27694 whole entry, chain 1 of 3): as the sequence (P27694 whole entry, chain 1 of 3) above
T5 sequence (P15927 whole entry, chain 2 of 3): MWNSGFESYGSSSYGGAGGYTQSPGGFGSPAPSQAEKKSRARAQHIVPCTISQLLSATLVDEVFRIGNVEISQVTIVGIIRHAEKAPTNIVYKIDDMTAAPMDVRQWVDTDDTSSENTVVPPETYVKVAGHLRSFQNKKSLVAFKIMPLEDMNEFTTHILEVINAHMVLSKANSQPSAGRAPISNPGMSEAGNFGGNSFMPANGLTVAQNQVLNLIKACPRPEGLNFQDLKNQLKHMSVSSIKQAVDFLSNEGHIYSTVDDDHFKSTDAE
T5 sequence (P35244 whole entry, chain 3 of 3): as the sequence (P35244 whole entry, chain 3 of 3) above

[7] = biological target: T5, RPA; experiment: cryo-EM (3.2 Å, trimeric core); 2 mM Mg(OAc)2; FA: 25 mM HEPES pH 8.0, 0.2 M KOAc, 10% glycerol, 0.25 mM TCEP, 1 mM Mg(OAc)2, 0.01% Brij-35, 25 °C, 10 nM DNA; BLI: 25 mM HEPES pH 8.0, 200 mM KOAc, 0.01% Tween-20, 1 mM Mg(OAc)2, 0.25 mM TCEP, 25 °C; conditions: protein: recombinant; tags: 10xHis on RPA3; copies: 1;1;1; single strand

Row | Binder | Kd [1] [nM] | Kd [2] [nM] | Kd [3] [nM] | Kd [4] [nM] | Kd [5] [nM] | Kd [6] [nM] | binding result [7]
1 | B1 | 3.2 ± 0.6 | 0.3 ± 0.1 | 3.4 ± 0.9 | 0.7 ± 0.2 | 0.2 ± 0.2 | 3.6 ± 0.5 | 
2 | B2 |  |  |  |  |  |  | binds
